Patent publication US20170342349A1, “STABILIZED ENZYME COMPOSITIONS” (NOVOZYMES A/S, priority 2014, published 2017)

Test: Inhibitor binding assay of SEQ ID NO 3 variants, Inhibitor 1, in Model B detergent
Type: biochemical
Settings: in Model B relative to SEQ ID NO 3; relative Ki, IF>1.0 = lower Ki
Description: Where E is the protease, I is the inhibitor and EI is the protease-inhibitor complex. […] The concentration of enzyme-inhibitor in the detergent solution is then given by:
where Etot is the total protease concentration ([Etot]=[E]+[EI]), Itot is the total inhibitor concentration ([Itot]=[I]+[EI]), and Ki is the equilibrium binding constant for the reaction. The measured slopes V are given by:
where V0 is the slope without inhibitor added. To calculate apparent binding constant Ki least square fitting of measured slopes at various inhibitor concentrations to this equation is performed with Ki and V0 as variables.
Purified protease variants are pre-diluted to approximately 0.2 mg/ml in dilution buffer. The experimental conditions are described in Table 5. 40 μl diluted protease is then mixed with 40 μl inhibitor solution Inhibitor 1: (Cbz-Gly-Ala-NHCH(CH2C6H4pOH)C(OH)(SO3Na)—H, wherein Cbz is benzyloxycarbonyl) or 40 μl Inhibitor 2: (4-FPBA) solution in the well of a 96 well microtiter plate (Nunc F 96-MTP). […] After 10 min mixing of protease and inhibitor at room temperature, 30 μl of the mixture is transferred to a microtiter plate (Nunc U96 PP 0.5 ml) with 270 μl Model B detergent (described in Table 1) in the wells resulting in inhibitor 1 concentrations of 0-30 μM and inhibitor 2 concentrations of 0-6000 μM. Protease, inhibitor and detergent is mixed for 1 hour using magnetic bars for 1 hour at room temperature to reach equilibrium. Then 20 μl is transferred to a microtiter plate (Nunc F 96-MTP). 100 μl substrate solution is added and after 5 sec mixing absorbance at 405 nm is measured every 20 sec for 5 min on a SpectraMax Plus reader. Slope from linear regression of initial increase in absorbance at 405 nm is used for calculation of apparent binding constants. Ki values were calculated according to the “Calculation of Ki” method described in “Materials and Methods”
Having the Ki for each variant, it is possible to calculate the effect of a single mutation, if data are available for at least two variants that differ only by that mutation. In this case, the relative Ki for the mutation (Improvement Factor, or IF) is calculated:
A lower Ki is desirable, as a satisfactory inhibition can be obtained at a lower inhibitor concentration, so beneficial mutations have an IF>1.0

Row | inhibitor 1 binding constant improvement factors (IF) | Molecule
1 | 1.86 | G182A: protease variant of SEQ ID NO 3 (protein, listed as Bacillus sp.) AVPSTQTPWGIKSIYNDQSITKTTGGSGIKVAVLDTGVYTSHLDLAGSAEQCKDFTQSNPLVDGSCTDRQGHGTHVAGTVLAHGGSNGQGVYGVAPQAKLWAYKVLGDNGSGYSDDIAAAIRHVADEASRTGSKVVINMSLGSSAKDSLIASAVDYAYGKGVLIVAAAGNSGSGSNTIGFPAGLVNAVAVAALENVQQNGTYRVADFSSRGNPATAGDYIIQERDIEVSAPGASVESTWYTGGYNTISGTSMATPHVAGLAAKIWSANTSLSHSQLRTELQNRAKVYDIKGGIGAGTGDDYASGFGYPRVK
2 | 4.47 | L184Y: protease variant of SEQ ID NO 3 (protein, listed as Bacillus sp.) AVPSTQTPWGIKSIYNDQSITKTTGGSGIKVAVLDTGVYTSHLDLAGSAEQCKDFTQSNPLVDGSCTDRQGHGTHVAGTVLAHGGSNGQGVYGVAPQAKLWAYKVLGDNGSGYSDDIAAAIRHVADEASRTGSKVVINMSLGSSAKDSLIASAVDYAYGKGVLIVAAAGNSGSGSNTIGFPGGYVNAVAVAALENVQQNGTYRVADFSSRGNPATAGDYIIQERDIEVSAPGASVESTWYTGGYNTISGTSMATPHVAGLAAKIWSANTSLSHSQLRTELQNRAKVYDIKGGIGAGTGDDYASGFGYPRVK

Same assay, conditions: in Model B relative to SEQ ID NO 3 comprising S173P + S175P + F180Y; relative Ki, IF>1.0 = lower Ki

Row | inhibitor 1 binding constant improvement factors (IF) | Molecule
3 | 15.91 | K146T + S173P + S175P + F180Y: protease variant of SEQ ID NO 3 (protein, listed as Bacillus sp.) AVPSTQTPWGIKSIYNDQSITKTTGGSGIKVAVLDTGVYTSHLDLAGSAEQCKDFTQSNPLVDGSCTDRQGHGTHVAGTVLAHGGSNGQGVYGVAPQAKLWAYKVLGDNGSGYSDDIAAAIRHVADEASRTGSKVVINMSLGSSATDSLIASAVDYAYGKGVLIVAAAGNSGPGPNTIGYPGGLVNAVAVAALENVQQNGTYRVADFSSRGNPATAGDYIIQERDIEVSAPGASVESTWYTGGYNTISGTSMATPHVAGLAAKIWSANTSLSHSQLRTELQNRAKVYDIKGGIGAGTGDDYASGFGYPRVK
4 | 5.47 | K146W + S173P + S175P + F180Y: protease variant of SEQ ID NO 3 (protein, listed as Bacillus sp.) AVPSTQTPWGIKSIYNDQSITKTTGGSGIKVAVLDTGVYTSHLDLAGSAEQCKDFTQSNPLVDGSCTDRQGHGTHVAGTVLAHGGSNGQGVYGVAPQAKLWAYKVLGDNGSGYSDDIAAAIRHVADEASRTGSKVVINMSLGSSAWDSLIASAVDYAYGKGVLIVAAAGNSGPGPNTIGYPGGLVNAVAVAALENVQQNGTYRVADFSSRGNPATAGDYIIQERDIEVSAPGASVESTWYTGGYNTISGTSMATPHVAGLAAKIWSANTSLSHSQLRTELQNRAKVYDIKGGIGAGTGDDYASGFGYPRVK

The next lines start with the molecule.

Row | Molecule | inhibitor 1 binding constant improvement factors (IF)
5 | K146N + S173P + S175P + F180Y: protease variant of SEQ ID NO 3 (protein, listed as Bacillus sp.) AVPSTQTPWGIKSIYNDQSITKTTGGSGIKVAVLDTGVYTSHLDLAGSAEQCKDFTQSNPLVDGSCTDRQGHGTHVAGTVLAHGGSNGQGVYGVAPQAKLWAYKVLGDNGSGYSDDIAAAIRHVADEASRTGSKVVINMSLGSSANDSLIASAVDYAYGKGVLIVAAAGNSGPGPNTIGYPGGLVNAVAVAALENVQQNGTYRVADFSSRGNPATAGDYIIQERDIEVSAPGASVESTWYTGGYNTISGTSMATPHVAGLAAKIWSANTSLSHSQLRTELQNRAKVYDIKGGIGAGTGDDYASGFGYPRVK | 1.36
6 | K146S + S173P + S175P + F180Y: protease variant of SEQ ID NO 3 (protein, listed as Bacillus sp.) AVPSTQTPWGIKSIYNDQSITKTTGGSGIKVAVLDTGVYTSHLDLAGSAEQCKDFTQSNPLVDGSCTDRQGHGTHVAGTVLAHGGSNGQGVYGVAPQAKLWAYKVLGDNGSGYSDDIAAAIRHVADEASRTGSKVVINMSLGSSASDSLIASAVDYAYGKGVLIVAAAGNSGPGPNTIGYPGGLVNAVAVAALENVQQNGTYRVADFSSRGNPATAGDYIIQERDIEVSAPGASVESTWYTGGYNTISGTSMATPHVAGLAAKIWSANTSLSHSQLRTELQNRAKVYDIKGGIGAGTGDDYASGFGYPRVK | 1.13
7 | S114A + S173P + S175P + F180Y: protease variant of SEQ ID NO 3 (protein, listed as Bacillus sp.) AVPSTQTPWGIKSIYNDQSITKTTGGSGIKVAVLDTGVYTSHLDLAGSAEQCKDFTQSNPLVDGSCTDRQGHGTHVAGTVLAHGGSNGQGVYGVAPQAKLWAYKVLGDNGSGYADDIAAAIRHVADEASRTGSKVVINMSLGSSAKDSLIASAVDYAYGKGVLIVAAAGNSGPGPNTIGYPGGLVNAVAVAALENVQQNGTYRVADFSSRGNPATAGDYIIQERDIEVSAPGASVESTWYTGGYNTISGTSMATPHVAGLAAKIWSANTSLSHSQLRTELQNRAKVYDIKGGIGAGTGDDYASGFGYPRVK | 3.33
8 | S114Q + S173P + S175P + F180Y: protease variant of SEQ ID NO 3 (protein, listed as Bacillus sp.) AVPSTQTPWGIKSIYNDQSITKTTGGSGIKVAVLDTGVYTSHLDLAGSAEQCKDFTQSNPLVDGSCTDRQGHGTHVAGTVLAHGGSNGQGVYGVAPQAKLWAYKVLGDNGSGYQDDIAAAIRHVADEASRTGSKVVINMSLGSSAKDSLIASAVDYAYGKGVLIVAAAGNSGPGPNTIGYPGGLVNAVAVAALENVQQNGTYRVADFSSRGNPATAGDYIIQERDIEVSAPGASVESTWYTGGYNTISGTSMATPHVAGLAAKIWSANTSLSHSQLRTELQNRAKVYDIKGGIGAGTGDDYASGFGYPRVK | 2.03
9 | K146F + S173P + S175P + F180Y: protease variant of SEQ ID NO 3 (protein, listed as Bacillus sp.) AVPSTQTPWGIKSIYNDQSITKTTGGSGIKVAVLDTGVYTSHLDLAGSAEQCKDFTQSNPLVDGSCTDRQGHGTHVAGTVLAHGGSNGQGVYGVAPQAKLWAYKVLGDNGSGYSDDIAAAIRHVADEASRTGSKVVINMSLGSSAFDSLIASAVDYAYGKGVLIVAAAGNSGPGPNTIGYPGGLVNAVAVAALENVQQNGTYRVADFSSRGNPATAGDYIIQERDIEVSAPGASVESTWYTGGYNTISGTSMATPHVAGLAAKIWSANTSLSHSQLRTELQNRAKVYDIKGGIGAGTGDDYASGFGYPRVK | 5.17
10 | K146A + S173P + S175P + F180Y: protease variant of SEQ ID NO 3 (protein, listed as Bacillus sp.) AVPSTQTPWGIKSIYNDQSITKTTGGSGIKVAVLDTGVYTSHLDLAGSAEQCKDFTQSNPLVDGSCTDRQGHGTHVAGTVLAHGGSNGQGVYGVAPQAKLWAYKVLGDNGSGYSDDIAAAIRHVADEASRTGSKVVINMSLGSSAADSLIASAVDYAYGKGVLIVAAAGNSGPGPNTIGYPGGLVNAVAVAALENVQQNGTYRVADFSSRGNPATAGDYIIQERDIEVSAPGASVESTWYTGGYNTISGTSMATPHVAGLAAKIWSANTSLSHSQLRTELQNRAKVYDIKGGIGAGTGDDYASGFGYPRVK | 3.72
